According to the Human Domainome abundance scans (Beltran et al. 2025):

B1: Tripartite motif-containing protein 49C, residues 87 to 133; numbered along this chain, P0CI26 (parent)
chain: SSEEQMCGTHRETKKIFCEVDRSLLCLLCSSSQEHRYHRHRPIEWAA

Variants of: B1
Test: abundance fitness (aPCA) (normalised: wild type 0, dead -1); higher = more abundant; growth selection in yeast, the domain comes from the species named
Conditions: Homo sapiens

Abundance fitness of substitutions, site by site:
G8: V -0.02, W -0.199, Y -0.082
T9: A -0.235, C -0.565, D -0.395, F -0.469, G -0.556, H -0.153, I -0.074, K 0.185, L 0.151, M -0.265, N -0.417, P -0.503, Q 0.057, R -0.078, S -0.127, V 0.047, W -0.339, Y -0.183
H10: C -0.523, D -0.303, F -1.07, G -0.671, I -1, K -0.714, L -0.256, M -1.06, N -0.836, P -0.549, Q -0.757, R -0.728, S -0.613, T -0.772, V -0.788, W -0.976, Y -0.855
R11: A -0.134, C -0.008, E -0.683, F -0.613, G -0.069, H 0.154, I -0.398, K 0.073, L -0.418, M -0.48, N -0.049, P -0.441, Q -0.246, S -0.185, T -0.135, V -0.502, W -0.36, Y -1.07
E12: A 0.113, C -0.01, D 0.077, F -0.035, G -0.01, H -0.228, I -0.341, K 0.265, L 0, M -0.117, N -0.797, P -0.671, Q 0.066, R 0.021, T 0.047, V -0.072, W -0.439, Y -0.092
T13: A 0.168, C -0.22, D -0.364, E -0.028, F -0.232, G -0.196, H 0.006, I 0.046, K -0.224, L -0.21, M 0.242, N -0.431, P 0.313, Q 0.148, R -0.128, S -0.081, V -0.033, W -0.436, Y -0.277
K14: A -0.029, C -0.222, D -0.303, E -0.173, F -0.811, G -0.518, H -0.738, L -0.247, M -0.199, N -0.419, P -0.431, Q -0.328, R 0.02, S -0.708, T -0.644, V -0.33, W -0.431
K15: A -0.337, C -0.382, D -0.571, E 0.037, F -0.32, G -0.265, I -0.327, L -0.3, M -0.578, N 0.201, P -0.79, Q -0.264, R -0.415, S -0.147, T -0.119, V -0.408, W -0.668
I16: A -0.703, C -0.384, D -0.392, E -0.444, F -0.325, G -0.554, H -0.557, K -0.197, L -0.372, M -0.107, N -0.677, P -0.574, Q -0.468, R -0.497, S -0.439, T -0.399, V -0.129, W -0.28, Y -0.077
F17: C -0.77, D -0.726, G -0.664, H -0.598, I -0.464, K -0.274, L -0.081, M -0.062, N -0.675, Q -0.653, R -0.356, S -0.755, T -0.443, V -0.328, W 0.089, Y -0.205
C18: A -0.907, D -0.669, E -0.333, F -0.802, G -0.821
